B1: Parvalbumin alpha, P02625 (parent)
chain: MSMTDLLSAEDIKKAIGAFTAADSFDHKKFFQMVGLKKKSADDVKKVFHILDKDKSGFIEEDELGSILKGFSSDARDLSAKETKTLMAAGDKDGDGKIGVEEFSTLVAES

Variants of: B1
Details: Rattus norvegicus; pH 7.4; Thermal; DSC; EDTA 10 mM; NaCl 0.20 M; transition: 2; reversible: yes; structure 1RTP; whole UniProt chain shown

Row | Variant | Tm [°C] | unfolding enthalpy (calorimetric) [kcal/mol] | unfolding enthalpy (van 't Hoff) [kcal/mol]
1 | E109S | 41.8 | 62 | 63
